Among the data in paper PMC4813465, “Selective Inhibition of the Mitochondrial Permeability Transition Pore Protects against Neurodegeneration in Experimental Multiple Sclerosis” (The Journal of Biological Chemistry, 2015) are half-maximal inhibition of Ca2+-induced PT pore opening, calcium retention capacity (CRC) assay on isolated liver mitochondria values, retold here.

The target in this assay is cyclophilin D (CypD, PPIF) with a K133I mutation.

In the case of cyclosporine (cyclosporin A) (peptide), the half-maximal inhibition of Ca2+-induced PT pore opening, calcium retention capacity (CRC) assay on isolated liver mitochondria was 40 nM.
